B1: TPR t1 (parent)
chain: GACCAAUCUGCCCUCAGAGCUCGAGAACAUCUUCGGAUGCAGAGGAGGCAGGCUUCGGUGGCGCGAUAGCGCCAACGUCCUCAACCUCCAAUGCAUCCCACCACAUGAUGAUGCCUGAAGAGCCUUGGUUUUUUG

Variants of: B1
Test: polymerase ribozyme fitness, log enrichment relative to wild type (log ratio); higher = more active; in vitro selection for triplet polymerase activity
Method in brief: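 Libraries of mutants in each subunit of a heterodimeric triplet polymerase ribozyme were generated by PCR and transcribed. In triplicate, each went through one in vitro selection round: annealing with biotinylated primer, partner subunit and triplets; frozen incubation at −7 °C; gel excision of extended constructs; streptavidin-bead capture; RT-PCR. Fitness, taken from Illumina sequencing of input and output libraries, is the logarithm of a genotype's enrichment over wild-type enrichment, averaged across replicates with inverse-variance weights. The logarithm is base 2, and genotypes needed ≥10 input reads and ≥1 read per output to be kept.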

Variant	polymerase ribozyme fitness (log ratio)
C4U G10U G52U C88G C123U	-0.494
A5G C12A C72G U87A C115G U131C	-3.53
C4U G113A	-1.15
C4U G17C G69U	-2.09
C4U C64A C124U	-5.08
A5U A6U C20U G69A U81A G113A	-2.02
C4U C53U C64U A84G	-1.67
A5G U9G U21A C56U A83U	0.0637
A5C G60U G128A	-2.44
A5C C62U C115A	-1.14
A5G C8G G52C C79U	0.0143
A5U A6C C49G U54A	-0.438
C4U G48U G52U C73U A90U C124G	-2.07
C4U U9G A103U C124G	-3.47
A5U A6U U7G C8U G36A A121C	0.985
A5G C13A C53U U59G	-1.69
C4U C22U	-4.42
A5C C11A U54A C104U	-0.94
C4U C49U A66G	-2.3
A5C C40U	-1.31
A5C C40G	-1.78

Variant	polymerase ribozyme fitness (log ratio)
A5C C72A C88A	-1.74
A5C C13U C79A C114A	-2.82
A5G U9A A27G C53U U126A U133A	-3.09
A5C A46C C56A C102U	-3.74
C4U G117A	-2.18
A5U A6U U9G C28A C34A G60A A121C	-6.95
A5C C13A C34A A83U A108G C124A	-5.47
A5C C56G C79A U106A	-2.63
A5G C79U	0.091
A5G C13G G39A G51A U112C	-2.65
A5G C22G C73G G93U G110A	-6.4
A5C U55C G120U C123G U131A	0.062
C4U G52U C73A	-0.845
C4U C82U	-0.905
A5U A6C C11U	-0.244
C4U C53A C64U C88A C123U G127U U131G	-1.35
C4U C34G	-5.92
C4U U96A	-1.6
C4U G71A	-0.833
A5C C12A G61U G113C	-2.74
C4U G113U C124U	-4.72

Variant	polymerase ribozyme fitness (log ratio)
C4U C62U A91U G120A	-2.44
A5C G69C	-1.74
A5C G69A	-3.11
A5C C15A	-1.17
A5G U14A	-1.75
A5G A18U A103U C114A G120U	-3.91
A5C G10C A43C C124G	-1.41
A5C U9A C40U G63U G135U	-2.96
A5C A24G G48U G69U G110A C124U U131C	-2.03
A5C C82U A84G U112A	-1.06
A5G A50C	-0.262
A5G A46U C56U C73G	-2.61
A5C C11G C85G	-1.61
A5G C8U U38G U106A C114A	-1.52
A5G C8G G113U	-1.74
A5G A83G G110A	-2.14
A5G C82G C97A C124A U125G	-4.89
C4U G52U G128U	-2.66
A5C C8A C12U U54A C56U G63U C98G	-7.29
C4U G60U U92A U96C	-3.48
C4U G10A C11G G69U	-0.117

Variant	polymerase ribozyme fitness (log ratio)
A5C U32C C53U G57A C85A	-3.78
A5C G113U	-3.73
A5C G113A	-1.96
A5G U106A	0.687
A5G G58A G63A	-0.764
A5G C11A C70A G71A A121C G122U G127A	-3.67
C4U G63A U116G A121U G127U	-4.48
C4U C115A	-1.18
A5G A16U G61U A66C U129A	-3.64
A5C U7C G69U C85A U92C	-3.85
A5G G17A	-2.47
C4U U32A G47A U112G	-5.29
A5U A37C G113U	-3.79
A5G G61A C94A	-0.707
A5U A6C C8G G47A G113C	-2.19
A5C A46U U106C	-1.72
C4U G69C C97U G122A	-2.49
A5G C34G G69U C82G	-2.92
A5C G69U A90U	-0.485
A5G U32C C70U G93A	-2.13

Reference: the RNAGym collection of RNA variant scans (doi:10.1073/pnas.2313332121)
